Consider 3 compounds from paper PMC12111831, “Phase-Separated Multienzyme Condensates for Efficient Synthesis of Imines from Carboxylic Acids with Enhanced Dual-Cofactor Recycling” (International Journal of Molecular Sciences, 2025).

One may read the Km as the concentration of substrate that gives half-maximal velocity. What is called kcat is the maximal rate divided by the concentration of active sites.

One data set has as its target T1, AspRedAm (Aspergillus oryzae, UniProt Q2TW47).
T1 sequence (Q2TW47 1-295): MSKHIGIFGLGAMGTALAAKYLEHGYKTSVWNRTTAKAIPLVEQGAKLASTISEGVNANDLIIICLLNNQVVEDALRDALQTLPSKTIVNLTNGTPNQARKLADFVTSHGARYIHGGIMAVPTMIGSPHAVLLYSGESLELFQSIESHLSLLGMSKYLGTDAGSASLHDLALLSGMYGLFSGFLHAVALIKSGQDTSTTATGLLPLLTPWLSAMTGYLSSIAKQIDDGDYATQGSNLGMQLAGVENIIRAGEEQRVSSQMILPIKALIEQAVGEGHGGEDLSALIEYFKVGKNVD
Nature of the data set: NADPH absorbance at […] nm, specific activity. The settings on record: 10 mM aldehyde, 20 mM amine, 0.2 mM NADPH, MOPS pH 7.5, 30 °C. The format is biochemical.

The next data set has as its system O=C(O)c1ccccc1. Nature of the data set: purified protein. The settings on record: ATP, NADPH, Mg2+, 30 °C.
Another data set concerns O=C(O)CCc1ccccc1. Nature of the data set: purified protein, by the assay type. The settings on record: pH 7.5; 30.0 °C.
The subject of the next data set is O=C(O)c1ccc2c(c1)OCO2. The data set can be described thus: purified protein, by the assay type. The settings on record: pH 7.5; 30.0 °C.
Another data set concerns Cc1ccc(C(=O)O)cc1. Nature of the data set: purified protein, by the assay type. The settings on record: pH 7.5; 30.0 °C.
A further data set relates to CCCC(=O)O. The data set can be described thus: purified protein, by the assay type. The conditions noted are these: pH 7.5; 30.0 °C.
In the next data set the test system is COc1ccc(C(=O)O)cc1. Nature of the data set: purified protein, by the assay type. The settings on record: pH 7.5; 30.0 °C.

Description for CCCC(=O)O: (§1) Varying substrate concentrations were dissolved in 250 mM NaOH. Substrate-free controls were included for baseline correction. Kinetic parameters were derived via the nonlinear regression of Michaelis–Menten plots using OriginPro 2021 SR2 (64-bit) Build 9.8.0.240.
Description for COc1ccc(C(=O)O)cc1: as §1
Description for Cc1ccc(C(=O)O)cc1: as §1
Description for O=C(O)CCc1ccccc1: as §1
Description for O=C(O)c1ccc2c(c1)OCO2: as §1

As to `NC1CC1` [cyclopropylamine], the “NADPH absorbance at 340 nm, specific activity” value on AspRedAm (not with aldehyde 2h) is listed as “both enzymes exhibited catalytic activity toward all tested substrates, except for substrate 2h with cyclopropylamine”.
With `C#CCN` [propargylamine], the “NADPH absorbance at 340 nm, specific activity” value at AspRedAm is reported as “both enzymes exhibited catalytic activity toward all tested substrates, except for substrate 2h with cyclopropylamine”.
As for NiCAR (Nocardia iowensis), the Km in the data set on O=C(O)c1ccccc1 came to 450 ± 30 µM; in the data set on O=C(O)CCc1ccccc1 it was 1040 ± 90 µM; with O=C(O)c1ccc2c(c1)OCO2, 4490 ± 620 µM; in the data set on Cc1ccc(C(=O)O)cc1, 1850 ± 160 µM; in the data set on CCCC(=O)O, 101930 ± 21090 µM; in the data set on COc1ccc(C(=O)O)cc1, 1580 ± 140 µM. Besides, the kcat with O=C(O)c1ccccc1 amounted to 3.9227 ± 0.0378 s⁻¹; with O=C(O)CCc1ccccc1, 3.15 ± 0.0588 s⁻¹; in the data set with O=C(O)c1ccc2c(c1)OCO2, 1.58 ± 0.0875 s⁻¹; in the data set on Cc1ccc(C(=O)O)cc1 it was 3.17 ± 0.0792 s⁻¹; in the data set with CCCC(=O)O, 5.56 ± 1.05 s⁻¹; in the data set on COc1ccc(C(=O)O)cc1, 1.89 ± 0.0387 s⁻¹.
